According to patent US20060281078, “Human fast-1 gene” (published 2006):
Positions count from the first letter of the chain named.

Key:
[1] = target: T1, hFAST-1 (Homo sapiens) (UniProt O75593); test: cell_activity; details: MvLu1 cells; TGF-beta dependent luciferase activation
T1 sequence: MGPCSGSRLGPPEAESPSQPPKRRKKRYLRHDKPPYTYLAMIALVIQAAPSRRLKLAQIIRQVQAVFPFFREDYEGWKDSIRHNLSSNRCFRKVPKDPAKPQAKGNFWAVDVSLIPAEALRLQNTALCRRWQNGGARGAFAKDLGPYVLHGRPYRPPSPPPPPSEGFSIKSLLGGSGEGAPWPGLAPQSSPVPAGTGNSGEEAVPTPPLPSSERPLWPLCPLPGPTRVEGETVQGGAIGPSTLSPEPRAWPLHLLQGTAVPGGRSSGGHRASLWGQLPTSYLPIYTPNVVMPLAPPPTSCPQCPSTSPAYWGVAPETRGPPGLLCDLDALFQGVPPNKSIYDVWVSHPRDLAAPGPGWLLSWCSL

[2] = target: Smad2 MH2 domain (S-C) (Homo sapiens, UniProt Q15796 SEQ:193-477); test: EMSA; specificity control; details: tags: GST fusion; label: 32P
Method: (§1) Derivation of clones and EMSA were performed as described in Example 7. Mock selected clones were used for comparison (“C” lanes). The positions of free probe and hFAST-1 bound probe (“shift”) are indicated. FIG. 4B provides a sequence summary of clones that bound to hFAST-1. The sequences of the relevant segment of 17 hFAST-1-binding clones were determined and the fractions of clones containing the nucleotides at the indicated positions relative to the consensus are shown. […] Wild-type (FBE) or mutant (FBE*) oligonucleotides were incubated with 0.5-2.0 μg of GST fusion proteins containing full-length hFAST-1 (FAST-FL) or only its forkhead domain (FAST-FH). GST fusion proteins containing the MH1 or MH2 domains of Smad2 (S-N and S-C, respectively; Zawel et al., 1998) were used as controls. The FBE* oligonucleotide contained the sequence TCTGTATC in place of the consensus TGTGTATT but was otherwise identical to FBE. […] EMSA was performed with (+) or without (−) 1 μg of GST fusion protein containing full length FAST-1 (“FAST-FL”). The sequence of the 50 bp ARE oligonucleotide differed by only one bp from ARE*.
(§2) Sixty bp probes corresponding to single clones were generated for EMSA by colony PCR using the following ³²P-labeled primers: 5′-[…]-3′ (SEQ ID NO:14) and 5′-[…]-3′ (SEQ ID NO:15). […]

[3] = target: Smad2 MH1 domain (S-N) (Homo sapiens, UniProt Q15796 Q15796:1-182); test: EMSA; specificity control; details: tags: GST fusion; label: 32P
Method: as §1, §2

[4] = target: T2, hFAST-1 full length (FAST-FL) (Homo sapiens, UniProt O75593 SEQ:1-365); test: EMSA; about 0.4 uM protein, 0.5 ng DNA; details: tags: GST N-terminal fusion (pGEX2TK); label: 32P
T2 sequence: T1 sequence
Method: as §1, §2

[5] = target: T2, hFAST-1 full length (FAST-FL); test: EMSA; two consensus positions altered; details: tags: GST N-terminal fusion (pGEX2TK); label: 32P
Method: as §1, §2

[6] = target: T2, hFAST-1 full length (FAST-FL); test: EMSA; 1 ug GST fusion; details: tags: GST N-terminal fusion (pGEX2TK); label: 32P
Method: as §1, §2

[7] = target: T2, hFAST-1 full length (FAST-FL); test: EMSA; single base substitution in FBE; details: tags: GST N-terminal fusion (pGEX2TK); label: 32P
Method: as §1, §2

Smad2 MH2 domain (S-C), sequence (Q15796 183-467): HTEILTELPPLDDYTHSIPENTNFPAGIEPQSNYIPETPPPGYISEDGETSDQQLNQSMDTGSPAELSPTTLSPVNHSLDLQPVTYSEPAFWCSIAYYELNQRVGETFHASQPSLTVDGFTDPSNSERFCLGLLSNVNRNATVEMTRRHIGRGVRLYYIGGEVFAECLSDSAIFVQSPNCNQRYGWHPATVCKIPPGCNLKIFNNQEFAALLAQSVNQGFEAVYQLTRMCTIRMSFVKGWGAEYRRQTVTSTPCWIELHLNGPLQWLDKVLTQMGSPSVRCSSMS
Smad2 MH1 domain (S-N), sequence (Q15796 1-182, one chain of several): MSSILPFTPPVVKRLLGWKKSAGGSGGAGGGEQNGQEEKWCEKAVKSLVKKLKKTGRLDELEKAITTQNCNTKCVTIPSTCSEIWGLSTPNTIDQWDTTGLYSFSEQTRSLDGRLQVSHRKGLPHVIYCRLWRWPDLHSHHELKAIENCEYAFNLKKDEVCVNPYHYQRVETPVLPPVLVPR

**Q.** Which activity [1] does the source give for “AR3-lux reporter (three copies of Mix.2 ARE)” here?
**A.** The activity was over 30 fold.

B1: FBE (dsDNA)
DNA 1: CGGATTGTGTATTGGCTGTAC
DNA 2: GTACAGCCAATACACAATCCG
**Q.** What does the source list for B1?
**A.** binding result [2]: no binding; binding result [3]: no binding; binding result [4]: binds

B2: FBE* (dsDNA)
DNA 1: CGGATTCTGTATCGGCTGTAC
DNA 2: GTACAGCCGATACAGAATCCG
**Q.** Does B2 bind [5]?
**A.** Result: no binding

B3: ARE (Mix.2) (dsDNA)
DNA 1: TATCTGCTGCCCTAAAATGTGTATTCCATGGAAATGTCTGCCCTTCTCTCCGTAC
DNA 2: GTACGGAGAGAAGGGCAGACATTTCCATGGAATACACATTTTAGGGCAGCAGATA
**Q.** Does B3 bind [6]?
**A.** Result: binds

B4: ARE mutant (dsDNA)
DNA 1: B3 DNA 1 with G19C
DNA 2: B3 DNA 2 with C37G
**Q.** Does B4 bind [7]?
**A.** Result: no binding
